Source: patent US20160145334A1 (AbbVie / Abbott, published 2016)

Key:
[1] = target: T1, soluble recombinant rat NgR, amino acids 27 through 450, with 6xHis tag (rat); assay: not stated
T1 construct: 2a; made in HEK293F cells; also called Rat NgR 6x His; rNgR
T1 chain: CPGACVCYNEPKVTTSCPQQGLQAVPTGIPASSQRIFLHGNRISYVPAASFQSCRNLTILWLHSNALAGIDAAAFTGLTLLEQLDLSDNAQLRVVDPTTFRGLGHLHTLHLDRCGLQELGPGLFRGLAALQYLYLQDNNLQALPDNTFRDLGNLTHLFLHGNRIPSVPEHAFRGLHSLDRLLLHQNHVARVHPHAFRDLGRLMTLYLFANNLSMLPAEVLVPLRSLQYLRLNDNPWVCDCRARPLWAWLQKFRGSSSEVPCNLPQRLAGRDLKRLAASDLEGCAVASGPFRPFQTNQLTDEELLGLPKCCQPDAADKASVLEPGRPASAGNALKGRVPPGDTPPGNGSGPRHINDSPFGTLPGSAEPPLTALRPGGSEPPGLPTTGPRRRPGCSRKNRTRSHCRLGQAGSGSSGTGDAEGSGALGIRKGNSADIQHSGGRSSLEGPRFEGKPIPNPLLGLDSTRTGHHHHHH

[2] = target: T2, human recombinant NgR/Fc chimera (R&D Systems, Cat. Number 1208-NG) (human, UniProt Q9BZR6 27-447); assay: ELISA, human NgR-Fc coated 0.2 µg/well, anti-mouse-HRP, TMB
T2 construct: range 1-447; Bought from R&D Systems; also called hNgR-Fc; human NgR-Fc; not shown: human Fc fragment
T2 sequence (looked up): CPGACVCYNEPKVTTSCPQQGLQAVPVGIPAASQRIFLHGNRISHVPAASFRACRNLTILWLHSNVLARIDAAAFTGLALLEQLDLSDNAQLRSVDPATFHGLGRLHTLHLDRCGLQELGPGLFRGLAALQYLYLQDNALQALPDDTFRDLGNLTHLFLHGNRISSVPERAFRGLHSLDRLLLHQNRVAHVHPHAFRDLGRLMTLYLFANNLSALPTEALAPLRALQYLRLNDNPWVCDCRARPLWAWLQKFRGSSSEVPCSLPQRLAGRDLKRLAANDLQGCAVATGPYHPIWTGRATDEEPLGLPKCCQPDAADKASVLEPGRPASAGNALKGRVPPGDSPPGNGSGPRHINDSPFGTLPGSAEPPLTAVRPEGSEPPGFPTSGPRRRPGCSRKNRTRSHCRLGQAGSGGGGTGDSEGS
Procedure: (§1) To determine the specificity of the monoclonal antibodies produced in Example 1, an ELISA using NgR-Fc (a fusion protein comprising amino acids Met 1 to Ser 447 of the human NgR and a human Fc fragment (R&D Systems)) and rat NgR (SEQ ID NO. 2a), was performed. Both ligands were immobilized on 96-well microtiter plates (Nunc Maxisorb; 0.2 μg/well). As a blocking reagent 2% bovine serum albumin (BSA) in Tris-HCL, pH 7.2 was used for 2 h at room temperature. The monoclonal antibodies were used in concentrations starting at 10,000 ng/ml. Bound antibodies were detected with a secondary anti-mouse antibody labeled with horseradish peroxidase (Sigma) and developed using 3,3′,5,5′-tetramethylbenzidine substrate (TMB, Pierce) under standard conditions. mAb50 and mAb51 specifically bound to human NgR. […] In similar experiments, mAb50 and mAb51 also specifically bound to a polypeptide consisting of amino acids of the rat NgR.

[3] = target: T1, soluble recombinant rat NgR, amino …; assay: ELISA, rat NgR coated 0.2 µg/well
Procedure: as §1

[4] = target: T2, human recombinant NgR/Fc chimera (R&D …); assay: competition ELISA, human NgR-Fc coated 0.2 µg/well, blocked ligand AP-Nogo66 at 0.15 nM, AttoPhos, RFU (30min-0min)
Procedure: To further characterize the monoclonal antibodies a competition assay similar to the binding assay of Example 2 was used to test the ability of the mAbs produced in Example 1 to inhibit AP-Nogo66 binding to human NgR-Fc. Human NgR-Fc (0.2 μg/well) was immobilized on 96-well microtiter plates (Nunc Maxisorb) in 50 mM Na-carbonate buffer pH 9 over night at 4° C. followed by a 2 h blocking step with 2% BSA in Tris-HCL, pH 7.2 at room temperature. The wells received a constant concentration of AP-Nogo66 (final concentration 0.15 nM in Tris-HCL, pH 7.2 with 0.1% BSA) and increasing concentrations of the mAbs. Plates were incubated for 90 min at room temperature. During each incubation step plates were washed with washing buffer (10 mM Tris-HCl, pH7.2 and 0.05% Tween20). Binding of AP-Nogo66 was detected with the AttoPhos substrate (Roche) and the fluorescence units were measured in the Polarstar (BMG) instrument.

[5] = target: T2, human recombinant NgR/Fc chimera (R&D …); assay: Biacore, antibody captured, hNgR-Fc chimera as antigen
[6] = target: T1, soluble recombinant rat NgR, amino …; assay: ELISA, rat NgR coated 0.2 µg/well, anti-mouse-HRP, TMB
Procedure: as §1

[7] = target: T2, human recombinant NgR/Fc chimera (R&D …); assay: ELISA, human NgR-Fc coated 0.2 µg/well

IC50 [1]: ~0.03 nM
EC50 (read off the curve) [2]: ~0.006 µg/mL
EC50 [3]: < 0.02 µg/mL
IC50 (read off the curve) [4]: ~2 nM
Kd [5]: 0.108 nM
koff [5]: 5.88e-05 s⁻¹
kon [5]: 544000 M⁻¹ s⁻¹
EC50 (read off the curve) [6]: ~0.03 µg/mL
EC50 [7]: < 0.02 µg/mL
B1: mAb51 (antibody, IgG2a, V domains shown)
VH: QVQLQQPGAELVKPGASVKLSCKASGYTFITYWMHWMKQRPGQGLEWIGEIDPSDSYTDYNQKFKGKATLTVDKSSSTAYMQLSSLTSEDSAVYYCARGSNVLYVLDYWGQGTSVTVSS
VL: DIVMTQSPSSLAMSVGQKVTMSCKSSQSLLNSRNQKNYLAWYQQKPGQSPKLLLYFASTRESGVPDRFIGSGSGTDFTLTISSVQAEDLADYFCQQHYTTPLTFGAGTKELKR
notes: also called Antibody Clone 51; ATCC No. PTA-8384
